{"source": "patent US20210238279A1", "about": "(Johns Hopkins, published 2021)", "binders": {"B1": {"name": "mAb20 (antibody, V domains shown)", "VH": "QIQLVQSGPELKKPGETVKISCKASGYIFTNYPMHWVKQAPGKGLKWMGWINTYSGVPTHADDFKGRFAFSLETSANSAFLQINNLKNEDTATYFCTRSRITPTGGYAMDYWGQGTSVTVSS", "VL": "DVVMTQTPLSLPVSLGDQASISCRSSQSLVHSNGNTYLHWYLQKPGQSPNLLISKVSNRFSGVPERFSGSGSGTDFTLKISRVEAEDLGVYFCSQNTHVPWTFGGGTKLEIKR", "notes": "Mouse hybridoma mAb purified on protein A/G; In some assays it was labelled with Alexa Fluor 488 or terbium cryptate; also called monoclonal antibody mAb20; anti-ZnT8 mAb20"}, "B2": {"name": "mAb39 (antibody, V domains shown)", "VH": "QVQLQQPGAELVKPGASVKLSCKASGYSFTTYWMHWVKQRPGQGLEWVGDINPRNGRTNYNEKSKSKATLTVDISSSTVYMQVSSLTSEDSAVYYCAIWSGAMDYWGPGTSVTVSS", "VL": "B1 VL with A19P, R24K, S32N, N50K, S54Y, E65D, N96T, W101P", "notes": "Mouse hybridoma mAb purified on protein A/G; In some assays it was labelled with Alexa Fluor 555 or d2; also called monoclonal antibody mAb39; anti-ZnT8 mAb39"}}, "key": {"[1]": {"biological_target": "T1, human ZnT8-His (human, UniProt Q8IWU4-2 1-320, limits assumed)", "T1 construct": "Over-expressed in HEK293 cells, solubilized with DDM and immobilized on Ni-NTA plates (native or unfolded with 2% SDS), or SDS-denatured on immunoblots; also called human ZnT8 with C-terminal poly-histidine tag; not shown: C-terminal poly-histidine tag", "T1 sequence (looked up)": "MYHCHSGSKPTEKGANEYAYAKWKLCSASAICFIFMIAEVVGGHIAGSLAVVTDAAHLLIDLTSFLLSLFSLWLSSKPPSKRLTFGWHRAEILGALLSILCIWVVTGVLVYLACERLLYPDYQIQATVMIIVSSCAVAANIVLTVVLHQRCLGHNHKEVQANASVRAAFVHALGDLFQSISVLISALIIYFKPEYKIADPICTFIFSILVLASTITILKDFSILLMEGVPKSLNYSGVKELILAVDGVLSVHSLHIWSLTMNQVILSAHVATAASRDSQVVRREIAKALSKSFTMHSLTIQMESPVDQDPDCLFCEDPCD", "assay": "ELISA on ZnT8-His on Ni-NTA plate, native against unfolded with 2% SDS", "from_the_text": "FIG. 4A-4C. mAb binding stabilized ZnT8 folding (FIG. 4A) mAb binding to folded or denatured ZnT8. ZnT8-His in detergent micelles was immobilized to a Ni-NTA plate in replication w/o SDS denaturation. ELISAs against denatured (triangle) and non-denatured ZnT8 (circle) were compared for mAb20 and mAb39 as indicated. CTDA and MSA were used as a positive and negative control, respectively. Error bars are standard deviations. (FIG. 4B) mAb binding to folded ZnT8-GFP in detergent micelles. mAb20 or mAb39 was mixed with ZnT8-GFP and then the binding mixture was analyzed by size-exclusion HPLC with GFP-fluorescence detection. […] (FIG. 4C) Protection of ZnT8 unfolding. Aliquots of ZnT8 in detergent micelles were incubated with Fab20 (red), Fab39 (magenta), or Fab20+Fab39 (brown). […] After a designated time of heat denaturation as indicated, protein aggregates were removed by ultracentrifugation, and the amount of remaining ZnT8 in the supernatant was detected by mAb20 immunoblotting (upper panel). […]\nFolding dependence. To compare the difference in mAb bindings to native and denatured ZnT8, we used 2% SDS to unfold immobilized ZnT8-His on a Ni-NTA plate, and then compared denatured ELISA readouts with non-denatured replicates. The native readout of mAb20 was about two-fold higher than the denatured readout (FIG. 4A), indicating a moderate selectivity for folded conformation over unfolded ZnT8. […]"}, "[2]": {"biological_target": "T2, mouse ZnT8-His (mouse, UniProt Q8BGG0 1-367, limits assumed)", "T2 construct": "Over-expressed in HEK293 cells, solubilized with DDM and immobilized on Ni-NTA plates, or SDS-denatured on immunoblots; not shown: C-terminal poly-histidine tag", "T2 sequence (looked up)": "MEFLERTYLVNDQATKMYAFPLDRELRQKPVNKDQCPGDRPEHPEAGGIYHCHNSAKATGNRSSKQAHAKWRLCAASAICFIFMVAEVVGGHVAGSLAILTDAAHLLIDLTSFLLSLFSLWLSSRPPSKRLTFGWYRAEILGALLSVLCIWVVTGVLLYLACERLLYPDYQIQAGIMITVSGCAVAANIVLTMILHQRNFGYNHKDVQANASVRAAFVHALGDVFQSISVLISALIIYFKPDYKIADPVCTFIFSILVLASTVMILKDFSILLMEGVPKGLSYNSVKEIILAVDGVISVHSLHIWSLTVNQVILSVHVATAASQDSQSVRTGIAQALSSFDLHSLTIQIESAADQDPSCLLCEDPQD", "assay": "ELISA, ZnT8-His on Ni-NTA plate, HRP-conjugated secondary antibody; binder taken from the axis label and paragraph 166; curve taken as mouse", "from_the_text": "FIG. 7A-7D. mAb binding specificities (FIG. 7A) mAb binding to ZnT8-His immobilized to Ni-NTA plate. Bound mAb20 (red) or mAb39 (magenta) was detected by an HRP-conjugated secondary antibody. Solid lines are least-squares fits of binding datapoints to a one-component binding process. Error bars are standard errors (n=8). (FIG. 7B) SDS-denatured mouse ZnT8-His (labeled as M) and human ZnT8-His (labeled as H) on immunoblots were detected by mAb20 or mAb39 as indicated. […] (FIG. 7C) Detection of endogenous human ZnT8 in EndoC-βH cells by mAb20 or […] immunoblotting. An equal amount of EndoC-βH lysate (5 μg total protein) was loaded to each lane. (FIG. 7D) Immunoblotting of HEK lysates with or with over-expression of a ZnT homolog as indicated. An approximately equal amount of total lysate protein (5 μg) was located to each lane, probed by either mAb20, mAb39, or anti-FALG antibody as indicated. FIG. 8. HTRF response to human ZnT8, mouse ZnT8 and human ZnT3.\nBinding specificities. […] Of note, the epitope-masking effect of ZnT8 immobilization weakened the apparent binding affinities of both mAbs as compared to the affinities determined by flow-cytometry, and such a weakening effect was more pronounced for mAb39, probably due to a closer proximity of the mAb39 epitope to the C-terminal His-tag. Next, we compared the immunoreactivities of mAbs to denatured ZnT8."}}, "note": "Where a chain is given by its changes, count along the chain named."}
{"binder": "B1", "values": [{"measurement": "ratio of native to SDS-denatured ELISA readout", "setting": "[1]", "result": "~2", "unit": "fold"}]}
{"binder": "B2", "values": [{"measurement": "EC50 (read off the curve)", "setting": "[2]", "result": "~30", "unit": "nM"}]}
